Laboratory results published in US8093212B2, “Methods of treating nerve-related vision disorders by an insulinomimetic agent” (The Penn State Research Foundation, priority 2002, dated 2012).
“Also recorded” adds a separate entry of the source.

Legend:
[1] = biological target: T1, insulin receptor beta-subunit (IRβ) (Rattus norvegicus, UniProt P15127); assay: Retinal tissue explant culture: IRβ tyrosine phosphorylation; assay type: cell-based; parameters: from tissue; host or cells: rat retinal explants; conditions: 10 nM insulin
Experimental: (§1) A tissue explant culture system was used to characterize insulin-signaling transduction in retina without the hindrance of the blood retinal barrier present in whole animal models. Such a tissue explant culture system was developed as follows. Rats as described in Examples 1 and 2 were anesthetized using sodium pentobarbital ([…]), and then decapitated upon loss of motor reflexes. Rat retinas were removed by cutting across the cornea, removing the lens, and squeezing the eyeball to rapidly extract the retina. Retinas were pre-incubated in MEM (Sigma) supplemented with 5 mM pyruvate and 10 mM HEPES for 15 minutes at 37° C., 5% CO2, and with gentle shaking. Ten nM insulin or vehicle was added following pre-incubation. At 2, 5, 15, and 30 minutes after insulin addition, retinas were snap-frozen in liquid nitrogen for future use.
To examine the time course of insulin signaling events in the tissue, insulin-treated retinas were compared to retinas that received vehicle (0.9% saline) and to untreated retinas. Tissues were analyzed by immunoprecipitation and Western blotting as described in Example 1.

Akt = assay: Intraportal insulin injection: retinal Akt (serine 473) phosphorylation Western blot; assay type: in vivo, Sprague-Dawley rats; conditions: retina, 45 minutes post-injection, 500 μg insulin bolus via portal vein
Experimental: (§2) Intraportal insulin injection was performed to determine if a single bolus insulin injection, and therefore an acute elevation in circulating insulin, could activate retinal insulin receptors (IR) in vivo as it does in other tissues. Intraportal insulin injection was conducted as follows. Male Sprague-Dawley rats (Charles River, Mass.) weighing 200 350 g were fasted 18 hours prior to being anesthetized with a 10:1 ketamine:xylazine cocktail (53.5 mg/kg ketamine and 5.33 mg/kg xylazine) administered by intramuscular injection. The fasted rats were administered a 500 μg bolus of insulin, nothing (sham), or vehicle (0.9% saline) via the portal vein. […]
(§3) Tissue lysates were immunoprecipitated and immunoblotted as described by Barber et al. (2001, J. Biol. Chem. 276: 32814 32831). Tissues were homogenized in an immunoprecipitation (IP) lysis buffer (consisting of 50 mM HEPES, pH 7.3, 137 mM NaCl, 1 mM MgCl2, 2 mM NaVO4, 10 mM Na2H2P2O7, 10 mM NaF, 2 mM EDTA, 2 mM PMSF, 10 mM benzamidine, 10% glycerol, 1% NP-40, and 1 protease inhibitor tablet (Boehringer-Mannheim) per 10 mL of buffer. Homogenates were rocked 15 minutes at 4° C. and then centrifuged at 14,000 rpm at 4° C. Prior to immunoprecipitation and immunoblotting, the resulting supernatant was subjected to protein assay (Bio-Rad) and quantification. […]

[2] = biological target: T1, insulin receptor beta-subunit (IRβ); assay: Intraportal insulin injection: muscle IRβ tyrosine phosphorylation (PY Western blot); assay type: in vivo, Sprague-Dawley rats; parameters: hindquarter skeletal muscle and retina were snap-frozen under liquid nitrogen; from tissue; host or cells: rat retina; conditions: 500 μg insulin bolus via portal vein
Experimental: Intraportal insulin injection was performed to determine if a single bolus insulin injection, and therefore an acute elevation in circulating insulin, could activate retinal insulin receptors (IR) in vivo as it does in other tissues. Intraportal insulin injection was conducted as follows. Male Sprague-Dawley rats (Charles River, Mass.) weighing 200 350 g were fasted 18 hours prior to being anesthetized with a 10:1 ketamine:xylazine cocktail (53.5 mg/kg ketamine and 5.33 mg/kg xylazine) administered by intramuscular injection. The fasted rats were administered a 500 μg bolus of insulin, nothing (sham), or vehicle (0.9% saline) via the portal vein. At 15, 30, 45 and 60 minutes post injection (shown in FIG. 2A), hindquarter skeletal muscle and retina were snap-frozen under liquid nitrogen, and then stored at −80° C. pending analysis by immunoprecipitation and immunoblotting. There was no difference in insulin receptor beta-subunit (IRβ) phosphorylation between vehicle (V) and insulin (I) injection.
Tissue lysates were immunoprecipitated and immunoblotted as described by Barber et al. (2001, J. Biol. Chem. 276: 32814 32831). Tissues were homogenized in an immunoprecipitation (IP) lysis buffer (consisting of 50 mM HEPES, pH 7.3, 137 mM NaCl, 1 mM MgCl2, 2 mM NaVO4, 10 mM Na2H2P2O7, 10 mM NaF, 2 mM EDTA, 2 mM PMSF, 10 mM benzamidine, 10% glycerol, 1% NP-40, and 1 protease inhibitor tablet (Boehringer-Mannheim) per 10 mL of buffer. Homogenates were rocked 15 minutes at 4° C. and then centrifuged at 14,000 rpm at 4° C. Prior to immunoprecipitation and immunoblotting, the resulting supernatant was subjected to protein assay (Bio-Rad) and quantification.
Immunoprecipitations were performed as follows. […] Fifty μg of protein per sample were analyzed by SDS-polyacrylamide gel electrophoresis (SDS-PAGE). […] Positive signals were detected with […] (ECL) kits (Cell Signaling) and electrochemifluoresence (ECF) kits (Amersham) each performed according to each manufacturer's protocol. […]

[3] = 0.0325 U/100 g insulin, subconjunctival space
From the text: This route of administration bypasses the BRB for a more direct route of insulin action on retina. […] The retina was processed for IRβ PY content as described in Example 1.

[4] = biological target: T2, insulin-like growth factor I receptor (IGF-IRβ) (Rattus norvegicus, UniProt P24062); assay: Retinal explants: IGF-IRβ tyrosine phosphorylation; assay type: cell-based
T2 construct: from tissue; host or cells: rat retinal explants
Experimental: as §1
Retinas were treated with either 1.3 nM IGF-1 or 0, 1, 10, 100, and 1000 nM insulin, and then retinal lysates were immunoprecipitated with an insulin-like growth factor I receptor (IGF-IRβ)-specific antibody, followed by PY Western blotting (shown in FIG. 6). The IGF1-R was immunoprecipitated and PY Western blotting performed as described above.

[5] = test system: IR and Akt kinase pathway; assay: Subconjunctival insulin administration: retinal IR and Akt kinase pathway activation; assay type: in vivo, Sprague-Dawley rats
[6] = biological target: T1, insulin receptor beta-subunit (IRβ); assay: Intraportal insulin injection: retina IRβ tyrosine phosphorylation (PY Western blot); assay type: in vivo, Sprague-Dawley rats; parameters: hindquarter skeletal muscle and retina were snap-frozen under liquid nitrogen; from tissue; host or cells: rat retina; conditions: 500 μg insulin bolus via portal vein, fasted rats
Experimental: as §2, §3

T1 sequence (P15127 764-1383 limits assumed): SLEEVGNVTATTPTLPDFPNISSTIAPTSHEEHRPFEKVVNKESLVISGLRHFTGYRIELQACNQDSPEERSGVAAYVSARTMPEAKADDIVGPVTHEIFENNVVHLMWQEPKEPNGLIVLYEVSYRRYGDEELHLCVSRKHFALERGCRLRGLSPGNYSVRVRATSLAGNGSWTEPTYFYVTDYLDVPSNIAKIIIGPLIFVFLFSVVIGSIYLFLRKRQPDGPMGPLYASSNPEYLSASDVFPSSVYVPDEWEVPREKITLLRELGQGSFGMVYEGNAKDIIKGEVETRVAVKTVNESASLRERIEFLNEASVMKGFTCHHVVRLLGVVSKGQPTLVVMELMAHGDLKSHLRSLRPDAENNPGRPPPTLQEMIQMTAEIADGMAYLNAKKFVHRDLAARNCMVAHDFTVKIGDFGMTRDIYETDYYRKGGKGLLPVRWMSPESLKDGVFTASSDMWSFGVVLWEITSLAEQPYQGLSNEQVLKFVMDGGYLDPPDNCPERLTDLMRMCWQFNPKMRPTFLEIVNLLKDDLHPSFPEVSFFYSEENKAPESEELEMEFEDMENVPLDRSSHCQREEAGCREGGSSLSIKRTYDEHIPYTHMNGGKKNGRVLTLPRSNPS
T1 sequence (P15127 27-759 limits assumed): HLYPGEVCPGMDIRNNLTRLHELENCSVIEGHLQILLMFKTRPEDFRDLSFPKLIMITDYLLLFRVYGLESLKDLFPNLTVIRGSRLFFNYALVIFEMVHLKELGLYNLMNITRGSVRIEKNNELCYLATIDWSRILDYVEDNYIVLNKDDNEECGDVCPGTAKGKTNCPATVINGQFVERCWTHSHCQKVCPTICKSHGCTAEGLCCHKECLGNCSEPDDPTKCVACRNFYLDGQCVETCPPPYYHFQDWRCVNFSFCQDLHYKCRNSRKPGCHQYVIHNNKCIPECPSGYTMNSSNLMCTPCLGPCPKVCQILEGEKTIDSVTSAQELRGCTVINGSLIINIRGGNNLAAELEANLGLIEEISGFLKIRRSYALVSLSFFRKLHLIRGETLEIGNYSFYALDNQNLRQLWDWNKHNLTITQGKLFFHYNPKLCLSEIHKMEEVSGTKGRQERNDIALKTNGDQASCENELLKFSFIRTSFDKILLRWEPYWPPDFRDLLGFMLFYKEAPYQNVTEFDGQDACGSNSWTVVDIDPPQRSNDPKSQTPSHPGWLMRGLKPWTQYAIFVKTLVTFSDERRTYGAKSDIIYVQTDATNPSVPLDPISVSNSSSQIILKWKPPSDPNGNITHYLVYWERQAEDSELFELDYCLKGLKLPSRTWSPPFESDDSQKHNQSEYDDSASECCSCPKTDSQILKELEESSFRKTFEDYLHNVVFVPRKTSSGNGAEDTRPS
T2 sequence (P24062 742-1370 limits assumed): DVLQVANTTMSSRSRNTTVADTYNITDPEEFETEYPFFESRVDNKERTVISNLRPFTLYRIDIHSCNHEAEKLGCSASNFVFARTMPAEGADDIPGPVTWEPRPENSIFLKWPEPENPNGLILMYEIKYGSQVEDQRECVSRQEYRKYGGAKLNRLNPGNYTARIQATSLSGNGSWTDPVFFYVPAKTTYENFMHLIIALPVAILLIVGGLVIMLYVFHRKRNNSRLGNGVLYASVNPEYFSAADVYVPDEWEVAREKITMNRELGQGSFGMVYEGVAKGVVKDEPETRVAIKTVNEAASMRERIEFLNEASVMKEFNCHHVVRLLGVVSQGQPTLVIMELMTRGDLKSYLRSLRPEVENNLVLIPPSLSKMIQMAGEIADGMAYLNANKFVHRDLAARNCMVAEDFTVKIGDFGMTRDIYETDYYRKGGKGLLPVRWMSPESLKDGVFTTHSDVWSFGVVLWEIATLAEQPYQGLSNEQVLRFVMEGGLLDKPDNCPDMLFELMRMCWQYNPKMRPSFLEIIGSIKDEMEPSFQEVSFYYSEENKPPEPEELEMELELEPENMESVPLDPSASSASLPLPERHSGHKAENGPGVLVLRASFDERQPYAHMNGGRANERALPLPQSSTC
T2 sequence (P24062 31-737 limits assumed): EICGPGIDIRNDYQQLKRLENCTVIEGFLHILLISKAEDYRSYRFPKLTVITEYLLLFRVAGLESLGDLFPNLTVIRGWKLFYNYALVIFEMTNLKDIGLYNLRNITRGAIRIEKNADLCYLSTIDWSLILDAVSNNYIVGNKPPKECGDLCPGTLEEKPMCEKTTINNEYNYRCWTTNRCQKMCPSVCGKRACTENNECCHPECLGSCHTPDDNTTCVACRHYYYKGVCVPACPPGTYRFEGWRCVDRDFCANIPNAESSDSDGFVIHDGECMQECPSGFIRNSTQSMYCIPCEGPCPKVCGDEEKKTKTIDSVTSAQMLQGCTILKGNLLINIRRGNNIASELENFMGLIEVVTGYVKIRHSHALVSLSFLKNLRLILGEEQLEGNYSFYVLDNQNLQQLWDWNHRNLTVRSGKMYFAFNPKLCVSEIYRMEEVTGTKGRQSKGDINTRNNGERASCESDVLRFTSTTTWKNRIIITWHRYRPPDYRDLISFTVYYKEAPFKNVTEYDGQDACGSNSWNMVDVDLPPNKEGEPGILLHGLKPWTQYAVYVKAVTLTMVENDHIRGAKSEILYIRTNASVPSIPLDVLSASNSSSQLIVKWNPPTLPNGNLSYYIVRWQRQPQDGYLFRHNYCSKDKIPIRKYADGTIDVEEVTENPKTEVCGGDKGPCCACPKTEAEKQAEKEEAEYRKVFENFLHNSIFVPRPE

For insulin, the “retinal IRβ phosphotyrosine immunoreactivity, fold greater than baseline” value ([1]; 30 minute time point) was 3 fold, the “retinal IRβ phosphotyrosine immunoreactivity, fold greater” value ([1]; within 2 minutes of stimulation, normalized to total IRβ) was ~4 fold and the “retinal explant IRβ phosphorylation (qualitative)” value ([1]; 2, 5, 15 and 30 minutes, normalized to total IRβ) was “significant increase”. The “increase in phosphoserine 473 content of Akt over vehicle injected controls” value (Akt) was 48%, the “time of peak muscle IRβ phosphotyrosine increase” value ([2]; fasted rats) was 30 min and the “increase in phosphotyrosine content in muscle IRβ (PY/IRβ ratio)” value ([2]; fasted rats, 15 minutes post-injection, zero time point set to 1) was ~30 fold. The “muscle IRβ phosphorylation response (qualitative)” value ([2]; 15, 30, 45 and 60 minutes post injection) was “robust response; also recorded: significant increase”, the “effect on blood glucose values” [3] was “without lowering blood glucose values” and the IGF-IRβ phosphorylation ([4]; 10 nM insulin) was “remained unchanged”. The IGF-IRβ phosphorylation ([4]; 100 nM insulin, comparator 1.3 nM IGF-1) was “increased”, the “activation of the IR and Akt kinase pathway” value ([5]; 0.0325 U/100 g insulin, subconjunctival space, normal rats) was “activated” and the “retinal IRβ PY content, insulin eye compared to contralateral vehicle eye” value ([5]; subconjunctival insulin, FIG. 8) was “phosphorylated”. The “time of maximal retinal IRβ tyrosine phosphorylation” value [6] was 45 min and the “time until retinal IRβ tyrosine phosphorylation increased” value [6] was 30 min.
